The target of test [1] is T1, cynomolgus monkey DLL3 extracellular domain (ECD) with C-terminal 8xHis tag and Avi tag (cynomolgus monkey, UniProt A0A2K5WSR1 27-490).
T1 construct: extracellular domain; Expressed in Expi293, purified by IMAC and SEC; also called cynoDLL3; cyno DLL3; not shown: Avi tag
T1 sequence: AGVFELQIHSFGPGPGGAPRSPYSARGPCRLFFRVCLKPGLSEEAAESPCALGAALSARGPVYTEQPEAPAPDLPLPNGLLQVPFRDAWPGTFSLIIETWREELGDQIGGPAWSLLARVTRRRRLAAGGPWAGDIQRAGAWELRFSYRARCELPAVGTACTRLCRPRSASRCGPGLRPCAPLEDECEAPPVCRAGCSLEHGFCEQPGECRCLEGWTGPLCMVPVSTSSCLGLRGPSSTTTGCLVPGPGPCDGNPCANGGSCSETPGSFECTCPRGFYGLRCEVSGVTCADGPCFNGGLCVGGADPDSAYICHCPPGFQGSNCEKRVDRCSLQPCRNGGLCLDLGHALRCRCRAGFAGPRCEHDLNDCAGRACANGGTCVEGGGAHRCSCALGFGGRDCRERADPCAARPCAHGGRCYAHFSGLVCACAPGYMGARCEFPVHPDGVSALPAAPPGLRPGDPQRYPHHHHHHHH
Nature of the test: SPR (Biacore), 37 C; scFv-Fc captured on chip, cyno DLL3 ECD in solution; 1:1 Langmuir fit. In general terms: Surface plasmon resonance follows binding to a sensor surface in real time, without labels.

The target in test [2] is T2, human DLL3 extracellular domain (ECD) with C-terminal 8xHis tag and Avi tag (human, UniProt Q9NYJ7 27-492).
T2 construct: extracellular domain; Expressed in Expi293, purified by IMAC and SEC; also called huDLL3; not shown: Avi tag
T2 sequence: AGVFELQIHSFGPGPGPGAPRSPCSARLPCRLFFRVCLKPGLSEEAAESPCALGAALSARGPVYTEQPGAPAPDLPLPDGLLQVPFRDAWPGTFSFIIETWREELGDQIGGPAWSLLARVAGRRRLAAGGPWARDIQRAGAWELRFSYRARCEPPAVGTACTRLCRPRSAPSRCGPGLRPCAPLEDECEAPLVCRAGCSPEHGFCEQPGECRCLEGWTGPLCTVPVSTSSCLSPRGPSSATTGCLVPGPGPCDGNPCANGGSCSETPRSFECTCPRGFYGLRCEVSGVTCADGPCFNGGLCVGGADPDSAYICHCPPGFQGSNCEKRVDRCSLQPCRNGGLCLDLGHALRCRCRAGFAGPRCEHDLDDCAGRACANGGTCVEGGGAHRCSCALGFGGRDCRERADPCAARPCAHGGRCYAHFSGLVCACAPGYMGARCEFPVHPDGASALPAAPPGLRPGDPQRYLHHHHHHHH
The test can be described thus: SPR (Biacore), 37 C; scFv-Fc captured on chip, human DLL3 ECD in solution; 1:1 Langmuir fit.

For test [3], the target named is T3, mouse DLL3 extracellular domain (ECD) with C-terminal 8xHis tag and Avi tag (mouse, UniProt O88516 33-490).
T3 construct: extracellular domain; Expressed in Expi293, purified by IMAC and SEC; also called msDLL3; not shown: Avi tag
T3 sequence: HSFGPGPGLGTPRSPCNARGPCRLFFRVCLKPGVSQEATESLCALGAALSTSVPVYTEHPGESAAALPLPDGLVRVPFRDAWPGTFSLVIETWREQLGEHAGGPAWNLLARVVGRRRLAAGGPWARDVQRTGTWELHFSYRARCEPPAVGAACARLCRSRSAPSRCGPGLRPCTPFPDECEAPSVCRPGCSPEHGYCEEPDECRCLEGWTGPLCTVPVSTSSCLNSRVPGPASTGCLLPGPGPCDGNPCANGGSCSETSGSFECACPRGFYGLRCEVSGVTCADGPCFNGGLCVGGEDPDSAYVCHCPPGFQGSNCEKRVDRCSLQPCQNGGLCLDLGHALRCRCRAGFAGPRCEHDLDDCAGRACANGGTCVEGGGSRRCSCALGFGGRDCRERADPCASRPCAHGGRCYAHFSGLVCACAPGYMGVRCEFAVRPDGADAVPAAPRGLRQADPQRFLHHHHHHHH
Nature of the test: SPR (Biacore), 37 C; scFv-Fc captured on chip, mouse DLL3 ECD in solution; 1:1 Langmuir fit.

For test [4], the target named is T4, Flag tagged recombinant DLL3 (Adipogen) (Homo sapiens (Human), UniProt Q9NYJ7 27-492).
T4 construct: Bought reagent; also called Flag-DLL3
T4 sequence: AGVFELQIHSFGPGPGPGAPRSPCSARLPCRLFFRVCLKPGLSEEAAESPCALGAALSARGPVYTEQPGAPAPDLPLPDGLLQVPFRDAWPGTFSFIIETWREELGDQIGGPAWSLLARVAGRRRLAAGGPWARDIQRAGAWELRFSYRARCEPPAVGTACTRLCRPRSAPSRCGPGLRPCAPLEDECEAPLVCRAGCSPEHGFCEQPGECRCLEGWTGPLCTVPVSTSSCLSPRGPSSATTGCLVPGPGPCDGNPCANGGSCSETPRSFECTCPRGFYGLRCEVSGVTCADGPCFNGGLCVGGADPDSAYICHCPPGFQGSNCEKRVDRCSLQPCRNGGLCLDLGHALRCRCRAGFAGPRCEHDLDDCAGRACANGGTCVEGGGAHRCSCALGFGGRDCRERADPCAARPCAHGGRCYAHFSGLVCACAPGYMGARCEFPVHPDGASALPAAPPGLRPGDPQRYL
The test can be described thus: flow cytometry, percent of T cells that recognise recombinant DLL3, Donor 419. For orientation: A flow cytometer gives signals particle by particle.
Method: (§1) To determine the percentage of T cells that were successfully transduced with DLL3 CAR, T cells were first incubated with 1 ug/ml Flag tagged recombinant DLL3 (Adipogen) in PBS+1% BSA for 20 minutes at 4 C.

Test [5] deals with T4, Flag tagged recombinant DLL3 (Adipogen). Nature of the test: flow cytometry, percent of T cells that recognise recombinant DLL3, Donor 503.
Method: as §1

B1: 4H8 scFv-Fc fusion (Fc fusion, not shown: a dimerising Fc or GST)
scFv: QVQLQQSGPGLVKPSQTLSLTCAISGDSVSSNSATWNWIRQSPSRGLEWLGRTYYRSKWYDDYAVSVKSRITINPDTSKNHLSLHLNSVTPEDTAVYYCAGGGLVGAPDGFDVWGQGTMVTVSSGGGGSGGGGSGGGGSGGGGSQSVLTQPPSASGTPGQRVTISCSGSSSNIGSDPVNWYQQLPGTAPKLLIYSNNQRPSGVPDRFSGSKSGTSASLAISGLQSEDEADYYCSAWDDSLNGYVFGTGTKVTVL
notes: scFv-Fc expressed in Expi293
Broadly, the Kd is the equilibrium constant for the complex coming apart. In the case of B1, the Kd in test [1] came out at 27 nM; in test [2], 23.3 nM; in test [3], 18.6 nM.

B2: 9D3 scFv-Fc fusion (Fc fusion, not shown: a dimerising Fc or GST)
scFv: QVQLQESGPGLVKPSETLSLTCTVSDDSISNYYWSWIRQPPGKGLEWIGYIFYSGTTNHNPSLKSRLTISLDKAKNQFSLRLSSVTAADTAVYYCARVFNWGFAFDIWGQGTMVTVSSGGGGSGGGGSGGGGSGGGGSEIVLTQSPGTLSLSPGERATLSCRASQRISRTYLAWYQQKPGQAPRLLIYGASSRATGIPDRFTGSGSGTDFTLTISRLEPEDFAVYYCQQYGTSPLTFGGGTKVEIN
notes: scFv-Fc expressed in Expi293
In the case of B2, the Kd amounted to 21.8 nM in test [1], 23.3 nM in test [2] and 7.19 nM in test [3].

B3: 26C8 scFv-Fc fusion (Fc fusion, not shown: a dimerising Fc or GST)
scFv: QVQLQESGPGLVKPSETLSLTCTVSDNSISNYYWSWIRQPPGKGLEWIAYIYYSGTTNYNPSLKSRVTISLDTSKNQFSLQLSSVTAADAAVYYCARVFHWGFAFDIWGQGTMVTVSSGGGGSGGGGSGGGGSGGGGSEIVLTQSPGTLSLSPGERATLSCRASQRVSNTYLAWYQQNPGQAPRLLIYGASSRATGIPDRFSGSGSGTDFTLTISRLEPEDFAVYYCQQYGTSPLTFGGGTKVEIK
notes: scFv-Fc expressed in Expi293
Regarding B3, the Kd turned out to be 4.51 nM in test [1], 5.53 nM in test [2] and 3.05 nM in test [3].

B4: 8E11 scFv-Fc fusion (Fc fusion, not shown: a dimerising Fc or GST)
scFv: QVQLQESGPGLVKPSETLSLTCTVSGDSISNYYWTWIRQPPGKGLEWIGYIYYSGTTNSNPSLKSRVTVSLDTSKSQFSLNLSSVTAADTAVYYCARVFNRGFAFDIWGQGTMVTVSSGGGGSGGGGSGGGGSGGGGSEIVLTQSPGTLSLSPGERATLSCRASQRISNTYLAWYQQKPGQAPRLLIYGASSRATGIPDRFSGSGSGTDFTLTISRLEPEDFAAYYCQQYDTSPLTFGGGTKVEIK
notes: scFv-Fc expressed in Expi293
Regarding B4, the dissociation constant Kd in test [1] came to 10.5 nM; in test [2], 11.2 nM; in test [3], 7.03 nM.

B5: 10A2 (other)
CAR: QVQLQQSGPGLVKPSETLSLTCAISGDSVSSNSATWNWIRQSPSRGLEWLGRTYYRSEWYNDYAVSVKSRITINPDTSKNHLSLHLNSVTPEDTAVYYCAGGGIVGAPDGFDVWGQGTMVTVSSGGGGSGGGGSGGGGSGGGGSQSVLTQPPSASGTPGQRVTISCSGSSSNIGSDPVIWYQQLPRTAPKLLIYSNNQRPSGVPDRFSGSKSGTSASLAISGLQSEDEADYYCAAWDDSLNGYVFGTGTKVTVLTTTPAPRPPTPAPTIASQPLSLRPEACRPAAGGAVHTRGLDFACDIYIWAPLAGTCGVLLLSLVITKRGRKKLLYIFKQPFMRPVQTTQEEDGCSCRFPEEEEGGCELRVKFSRSADAPAYQQGQNQLYNELNLGRREEYDVLDKRRGRDPEMGGKPRRKNPQEGLYNELQKDKMAEAYSEIGMKGERRRGKGHDGLYQGLSTATKDTYDALHMQALPPR
notes: also called anti-DLL3 CAR with 10A2 scFv, on primary T cells
As for B5, the Transduction efficiency came to 58.5% in test [4] and 67.6% in test [5].

B6: 3B11 (other)
CAR: QVQLQQSGPGLVKPSQTLSLTCAISGDSVSSNSVVWNWIRQSPSRGLEWLGRTYYRSKWYDDYAVSVKSRITINPDTSKNQFSLQLNSVTPEDTAVYHCARGGIVGAPDAFDIWGQGTMVTVSSGGGGSGGGGSGGGGSGGGGSQSVLTQPPSASGTPGQRVTISCSGSSSNIGSDPVSWYQQFPGTAPKLLIYTNNQRPSGVPDRFSGSKSGTSASLAISGLQSEDEADYYCAAWDDSLNGHVFGTGTKVTVLTTTPAPRPPTPAPTIASQPLSLRPEACRPAAGGAVHTRGLDFACDIYIWAPLAGTCGVLLLSLVITKRGRKKLLYIFKQPFMRPVQTTQEEDGCSCRFPEEEEGGCELRVKFSRSADAPAYQQGQNQLYNELNLGRREEYDVLDKRRGRDPEMGGKPRRKNPQEGLYNELQKDKMAEAYSEIGMKGERRRGKGHDGLYQGLSTATKDTYDALHMQALPPR
notes: also called anti-DLL3 CAR with 3B11 scFv, on primary T cells
For B6, the Transduction efficiency in test [4] was 57.3%; in test [5], 65.8%.

B7: 10G1-K scFv-Fc fusion (Fc fusion, not shown: a dimerising Fc or GST)
scFv: EVQLLESGGGLVQPGGSLRLSCAASGFTFSSYAMNWVRQAPGKGLEWVSTISGSGGSTYYADSVKGRFTISRDNSKNTLYLQMNSLRAEDTAVFYCAIDPEYYDILTGGDYWGQGTLVTVSSGGGGSGGGGSGGGGSGGGGSDIQMTQSPSAMSASVGDRVTITCRASQGISNYLAWFQQKPGKVPKRLIYAASSLQSGVPSRFSGSGSGTEFTLTISSLQPEDFATYFCLQHDSFPLTFGGGTKVEIK
notes: scFv-Fc expressed in Expi293
For B7, the dissociation constant (Kd) was found to be 28.8 nM in test [1], 26.3 nM in test [2] and 27.7 nM in test [3].

B8: 2G1 scFv-Fc fusion (Fc fusion, not shown: a dimerising Fc or GST)
scFv: QLQLQESGPGLVKPSETLSLTCTVSGGSISSSSYYWGWIRQPPGKGLEWIGSIYYSGNIYHNPSLKSRVSISVDTSKNQFSLRLSSVTAADTAVYYCAREIIVGATHFDYWGQGTLVTVSSGGGGSGGGGSGGGGSGGGGSAIQMTQSPSSLSASVGDRVTITCRASQGIRNDLGWYQQKPGKAPELLIYAASSLQSGVPSRFSGSGSGTDFTLTISSLQPEDFATYYCLQDYNYPLTFGPGTKVDIK
notes: scFv-Fc expressed in Expi293
On to B8, for which the equilibrium dissociation constant (Kd) is 20.5 nM in test [1], 17.2 nM in test [2] and 2.61 nM in test [3].

B9: 4E1 (other)
CAR: QVQLQQSGPGLVKPSQTLSLTCAISGDNVSTNSAAWNWIRQSPSRGLEWLGWTYYRSKWYNDYAVSLKSRININPDTSKNQFSLQLNSVTPEDTAVYYCARWVNRDVFDIWGQGTMVTVSSGGGGSGGGGSGGGGSGGGGSQSALTQPASVSGSPGQSITISCTGTSSDVGSYNLVSWYQQHPGKAPKLMIYEGSKRPSGVSNRFSGSKSGNTASLTISGLQAEDEADYYCCSYAGSSTWVFGGGTKLTVLTTTPAPRPPTPAPTIASQPLSLRPEACRPAAGGAVHTRGLDFACDIYIWAPLAGTCGVLLLSLVITKRGRKKLLYIFKQPFMRPVQTTQEEDGCSCRFPEEEEGGCELRVKFSRSADAPAYQQGQNQLYNELNLGRREEYDVLDKRRGRDPEMGGKPRRKNPQEGLYNELQKDKMAEAYSEIGMKGERRRGKGHDGLYQGLSTATKDTYDALHMQALPPR
notes: also called anti-DLL3 CAR with 4E1 scFv, on primary T cells
B9: the figures for the Transduction efficiency in test [4] and in test [5] were 2.35% and 3.18%, respectively.
